For one substance, Ca^2+ mobilization in ETFR cells, minimal effective dose and cross-desensitization of Ca^2+ flux in FPRL1/293 cells results are on record in patent US20030147883A1.

The target of assay [1] is Epitope tagged high affinity fMLP receptor FPR (on ETFR cells) (UniProt P21462). Put plainly: cell-based or functional assay.
In assay [2] the target is FPR-like receptor 1 (FPRL1) (UniProt P25090). The experiment in a line: cell-based or functional assay.
Chain of FPR-like receptor 1 (FPRL1) (P25090 whole entry): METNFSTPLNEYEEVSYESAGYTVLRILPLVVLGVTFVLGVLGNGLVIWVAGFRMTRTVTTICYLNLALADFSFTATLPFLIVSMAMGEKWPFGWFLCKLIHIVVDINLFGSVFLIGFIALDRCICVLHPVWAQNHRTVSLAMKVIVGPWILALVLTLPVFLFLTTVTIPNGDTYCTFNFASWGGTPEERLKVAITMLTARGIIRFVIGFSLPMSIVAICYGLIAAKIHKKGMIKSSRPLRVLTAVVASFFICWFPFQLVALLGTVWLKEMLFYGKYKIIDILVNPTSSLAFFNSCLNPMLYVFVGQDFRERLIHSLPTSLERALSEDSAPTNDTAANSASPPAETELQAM

Chain of Epitope tagged high affinity fMLP receptor FPR (on ETFR cells) (P21462 whole entry): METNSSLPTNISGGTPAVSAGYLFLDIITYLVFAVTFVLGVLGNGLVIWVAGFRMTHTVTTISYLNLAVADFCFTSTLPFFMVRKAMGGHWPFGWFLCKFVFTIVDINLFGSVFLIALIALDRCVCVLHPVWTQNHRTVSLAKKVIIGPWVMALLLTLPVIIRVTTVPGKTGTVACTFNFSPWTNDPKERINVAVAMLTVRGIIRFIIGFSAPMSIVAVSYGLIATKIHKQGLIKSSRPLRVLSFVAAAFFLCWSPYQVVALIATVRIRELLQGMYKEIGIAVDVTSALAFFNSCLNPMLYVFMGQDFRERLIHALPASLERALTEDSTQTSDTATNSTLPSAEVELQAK

Substance “N-formyl-methionyl-leucyl-phenylalanine (fMLP) (peptide)” displayed a Ca^2+ mobilization in ETFR cells, minimal effective dose in assay [1] of 100 pM. Moreover, the cross-desensitization of Ca^2+ flux in FPRL1/293 cells in assay [2] is 100000 fold excess.
